# Measurements: the Immune Epitope Database (IEDB)
# Experiments:
# Assay in all cases: IEDB peptide-MHC binding, purified MHC/competitive/radioactivity; ≥ and ≤ were set here for values at or beyond the usual limits of such assays
# Conditions in all cases: source organism: Bordetella pertussis
# HLA-B*44:03 = target: HLA-B*44:03
# HLA-A*02:01 = target: HLA-A*02:01
# HLA-B*57:01 = target: HLA-B*57:01
# HLA-B*35:01 = target: HLA-B*35:01
# HLA-B*07:02 = target: HLA-B*07:02
# HLA-B*53:01 = target: HLA-B*53:01
sequence,measurement,setting,value
AEKVTTPAV,IC50,HLA-B*44:03,39.3 µM
AELQTYLRQ,IC50,HLA-B*44:03,1.83 µM
ALILAASPV,IC50,HLA-A*02:01,26.3 µM
AMQGAVVHL,IC50,HLA-A*02:01,2.65 µM
same,IC50,HLA-B*44:03,37.1 µM
AMTHLSPAL,IC50,HLA-A*02:01,0.162 µM
ATYIADSGF,IC50,HLA-B*57:01,4.17 µM
AVAAPAVGA,IC50,HLA-A*02:01,≥ 78.1 µM
KTNMVVTSV,IC50,HLA-B*57:01,4.37 µM
LAAQVTQRG,IC50,HLA-B*57:01,40.2 µM
LEAGRRFTH,IC50,HLA-B*44:03,44.2 µM
LMGPLQVNA,IC50,HLA-A*02:01,0.629 µM
LPEPVKLTL,IC50,HLA-B*35:01,69.9 µM
LPKPVTVKL,IC50,HLA-B*07:02,2.66 µM
SLADISLGA,IC50,HLA-A*02:01,0.0911 µM
YIWGLYPTY,IC50,HLA-B*53:01,48.1 µM
